Measured values reported in US20230036161A1, “AGENT FOR USE IN THE TREATMENT AND PROPHYLAXIS OF POSTISCHEMIC TISSUE INJURY” (Eberhard Karls Universität Tübingen Medizinische Fakultät, priority 2020, published 2023).

Key:
[1] = system: human cardiac myocytes (HMCs); experiment: Caspase 3 staining and caspase 3 ELISA in cardiac myocytes; type: cell-based; conditions: 1 μg/ml; cardiomyocytes
Protocol: Human cardiac myocytes (HMC-c; PromoCell, Heidelberg, Germany) were grown to confluence on chamber slides followed by 6 hours of stimulation with rhSEMA7A, rhlgG1 Fc, BSA, or staurosporine (Sigma-Aldrich, Munich, Germany), 1 μg/ml each. After fixation, cells were stained with rabbit polyclonal anticaspase3 (abcam, Cambridge, UK).

WT animals = experiment: Murine myocardial ischemia and reperfusion model, rmSema7a injected into WT animals; type: in vivo, mouse
Protocol: This animal model has been described in detail in the prior art. Subgroups of animals received either recombinant mouse Sema7a (rmSema7a) or recombinant mouse IgG2A Fc (rmlgG2A Fc; control) intravenously before the start of the experiment or Sema7a antibody (abcam ab23578, Cambridge, UK; anti-Sema7a) or as control rabbit IgG sc-2027 (Santa Cruz Biotechnology, Santa Cruz, USA) 5 minutes before the start of reperfusion.
The Vectastain ABC kit (Linaris, Wertheim, Germany) was used for immunohistochemical staining. After inhibition of the nonspecific binding sites with avidin blocking solution (Vector), the sections were incubated with primary antibodies (rabbit anti-mouse CD41, abcam, Cambridge, UK) overnight at 4° C. Tissue sections were then incubated with biotinylated rabbit anti-IgG for 1 hour, followed by Vectastain ABC reagent for 30 minutes, then developed over DAB substrate. For PMN staining, the procedure was repeated using rat anti-mouse neutrophil antibody (BioRad, Serotec, Puchheim, Germany) and HistoGreen as substrate (Linaris, Wertheim, Germany). Counterstaining was performed with Nuclear Fast Red (Linaris, Wertheim, Germany). Histological sections were analyzed for the presence of PNCs by manual counting within 3 independent tissue sections of each animal at a magnification of […].
(§1) Troponin blood plasma levels of samples collected by central venous puncture after 120 minutes of reperfusion were measured for murine troponin I type 3 (TNNI3) using the SEA478Mu ELISA kit (Cloud-Clone Corp, Houston, USA).
For flow cytometric analysis, the following antibodies were used and freshly prepared before the experiment: rat anti-mouse Ly6G (Biolegend, clone 1A8) labeled with BV421 (Biolegend 127628), rat anti-mouse CD42b-FITC (Emfret, clone Xia.G5), rat anti-mouse CD62P (BD Pharmingen, clone RB40.34) labeled with Alexa Fluor 647 (BD 563674), rat anti-mouse activated GPIlb/IIIa-PE (Emfret, clone JON/A).
After staining, sampling focused peripheral granulocytes by their granularity and surface expression of the lymphocyte antigen-6 complex, locus G (Ly-6G), referred to as SSC/Ly-6G+. The presence of the platelet surface marker CD42b on the surface of SSC/Ly-6G+ events distinguished SSC/Ly-6G+/CD42b+ platelet-neutrophil complexes (PNCs) from freely circulating SSC/Ly-6G+/CD42b- PMNs. These two populations were tested for their representation of the surface transmembrane glycoprotein P-selectin (CD62P) and activated GPIlb/IIIa (clone JON/A) (not shown).

neutrophils = experiment: Neutrophil rolling/adhesion, coated capillaries and intravital microscopy of cremaster; design: species or system mouse; conditions: in vitro and in vivo
Protocol: Mice were anesthetized, and cremasal tissue was dissected under a Nikon 20×water immersion lens (NA=0.32). Neutrophils were resuspended with 20 μl of anti-Ly6G (Biolegend 127608) and platelets with 20 μl of platelet-specific FITC-labeled X488 antibody (emfret, Eibelstadt, Germany) in 200 μl and administered i.v. Videos of postcapillary cremaster venules 20-40 μm in diameter were recorded using a Hamamatsu Orca Flash 4.0 camera mounted on a dual-emission image splitter (optoSplit II, Cairn Research; UK) at a rate of 16 frames/s (for videos totaling 10 seconds) and with a resolution of 2048×1024 pixels mounted on a Nikon Eclipse Ci-L microscope (Nikon, Dusseldorf; Germany) operated by NIS elements Ar software. Videos were recorded before administration of rmSema7a i.v., and videos were recorded at 20-second intervals for 5 minutes after incubation for 15 minutes. Neutrophil velocity (μm/sec) was calculated from manually tracked cells, stationary neutrophils were counted (cell count/mm^2), platelet sedimentation on the vessel wall was measured (normalized MFI %/mm), transmigrated cells from the vasculature after 15 min exposure to rmSema7a were counted (cell count/mm^2), the distance of transmigrated cells measured in μm in all videos was calculated using NIS elements Ar software 4.20-64 bit processed (Nikon, Dusseldorf, Germany).

WT platelets = experiment: Flow chamber: thrombus formation on collagen in flow, whole-blood perfusion; type: cell-based, mouse
Protocol: (§2) Platelet adhesion in flow was measured by perfusion of murine whole blood on collagen-coated coverslips (200 μg/ml fibrillar type I collagen) at 1000 s^−1 or 400 s^−1, as indicated. Platelets were labeled with a DyLight 488-conjugated anti-GPIX Ig derivative ([…]) and treated with rmSema7a or IgG2A Fc for 5 minutes at 37° C. before perfusion. In the case of treatment with GPlb-blocking antibody, 100 μg/mouse p0p/B Fab was injected intravenously 20 minutes before blood collection for the experiment. In further experiments, blood from animals with […] GPlb (GPlb-IL4tg) was used.

GPlb-IL-4-tg platelets = experiment: Flow chamber: thrombus formation on collagen in flow, blood of GPlb-IL-4tg mice; type: cell-based, mouse; conditions: shear rate 1000 s−1
Protocol: as §2

[2] = system: Sema7a^loxP/loxP HBBCre+ animals; experiment: Murine myocardial ischemia and reperfusion model, reconstitution of Sema7a loxP/loxP HbbCre+ animals with rmSema7a; type: in vivo, mouse
Description: Sema7a^−/−mice were generated, validated and characterized as described in the prior art. The corresponding WT controls were bred as littermates of the Sema7a mice. In a subset of experiments, a newly generated Sema7a flox mouse line (Sema7a^loxP/loxP/Ozgene) on a C57BL/6 background was crossed with the following Cre recombinase-positive mouse lines to obtain tissue-specific gene deletion: Erythrocyte-specific HbbCre+, myocardial cell-specific Myh6Cre+; endothelial cell-specific Tie2Cre+; and immune cell-specific LysMCre+. Tissue-specific gene deletions of Sema7a mouse lines (Sema7a^loxP/loxP HbbCre+; Sema7a^loxP/loxP Myh6Cre+, […], and Sema7a^loxP/loxP LysMCre+) were used in the experiments. Sema7a^loxP/loxP Cre-negative (−) littermates were used as controls. […]
The Vectastain ABC kit (Linaris, Wertheim, Germany) was used for immunohistochemical staining. […] Histological sections were analyzed for the presence of PNCs by manual counting within 3 independent tissue sections of each animal at a magnification of […].
as §1

pro-apoptotic effect assessed by caspase 3 activation [1]	Molecule	infarct size (WT animals; 1 μg/mouse before reperfusion, compared with rmIgG2A Fc control)	numbers of PNCs in tissue areas at risk (histological sections) (WT animals; compared with Fc controls)	tissue damage in histological sections (WT animals; compared with Fc controls)	PNCs extravasated into the myocardium in the AAR (WT animals; flow cytometry)	numbers of PNCs in the blood (WT animals; flow cytometry)	signals for GPlb, P-selectin, and activated integrin αIIbβ3 (JON/A) on conjugates in the AAR (WT animals; flow cytometry)	signals for the platelet markers GPlb, CD62P, and activated integrin αIIbβ3 (JON/A) on conjugates in blood (WT animals; flow cytometry)	troponin I (WT animals; plasma, 120 min, compared with Fc control)	neutrophil adhesion (neutrophils)	adhesion and thrombus formation of WT platelets on collagen in flow (WT platelets; shear rate 400 s^−1)	adhesion and thrombus formation of WT platelets on collagen in flow (WT platelets; shear rate 1000 s^−1)	adhesion or thrombus formation of GPlb-IL-4-tg platelets on collagen in flow (GPlb-IL-4-tg platelets)	reduction in infarct size, plasma TnI and PNCs seen in Sema7a loxP/loxP HbbCre+ animals ([2]; injection of rmSema7a)	MIRI ([2]; ischemia 1 h, reperfusion 2 h, vs Fc control)
no direct pro-apoptotic effect	rhSEMA7A: recombinant human SEMA7A (protein, UniProt O75326 45-648, looked up) Semaphorin-7A: QGHLRSGPRIFAVWKGHVGQDRVDFGQTEPHTVLFHEPGSSSVWVGGRGKVYLFDFPEGKNASVRTVNIGSTKGSCLDKRDCENYITLLERRSEGLLACGTNARHPSCWNLVNGTVVPLGEMRGYAPFSPDENSLVLFEGDEVYSTIRKQEYNGKIPRFRRIRGESELYTSDTVMQNPQFIKATIVHQDQAYDDKIYYFFREDNPDKNPEAPLNVSRVAQLCRGDQGGESSLSVSKWNTFLKAMLVCSDAATNKNFNRLQDVFLLPDPSGQWRDTRVYGVFSNPWNYSAVCVYSLGDIDKVFRTSSLKGYHSSLPNPRPGKCLPDQQPIPTETFQVADRHPEVAQRVEPMGPLKTPLFHSKYHYQKVAVHRMQASHGETFHVLYLTTDRGTIHKVVEPGEQEHSFAFNIMEIQPFRRAAAIQTMSLDAERRKLYVSSQWEVSQVPLDLCEVYGGGCHGCLMSRDPYCGWDQGRCISIYSSERSVLQSINPAEPHKECPNPKPDKAPLQKVSLAPNSRYYLSCPMESRHATYSWRHKENVEQSCEPGHQSPNCILFIENLTAQQYGHYFCEAQEGSYFREAQHWQLLPEDGIMAEHLLGHACALA	–	–	–	–	–	–	–	–	–	–	–	–	–	–
–	rmSema7a: recombinant mouse Sema7a fusion protein (R&D SYSTEMS, Minneapolis, USA) (protein, left off: a dimerising Fc or GST) QGHSRSGPRISAVWKGQDHVDFSQPEPHTVLFHEPGSFSVWVGGRGKVYHFNFPEGKNASVRTVNIGSTKGSCQDKQDCGNYITLLERRGNGLLVCGTNARKPSCWNLVNDSVVMSLGEMKGYAPFSPDENSLVLFEGDEVYSTIRKQEYNGKIPRFRRIRGESELYTSDTVMQNPQFIKATIVHQDQAYDDKIYYFFREDNPDKNPEAPLNVSRVAQLCRGDQGGESSLSVSKWNTFLKAMLVCSDAATNRNFNRLQDVFLLPDPSGQWRDTRVYGVFSNPWNYSAVCVYSLGDIDRVFRTSSLKGYHMGLPNPRPGMCLPKKQPIPTETFQVADSHPEVAQRVEPMGPLKTPLFHSKYHYQKVVVHRMQASNGETFHVLYLTTDRGTIHKVVESGDQDHSFVFNIMEIQPFHRAAAIQAISLDADRRKLYVTSQWEVSQVPLDMCEVYSGGCHGCLMSRDPYCGWDQDRCVSIYSSQRSVLQSINPAEPHRECPNPKPDEAPLQKVSLARNSRYYLTCPMESRHATYLWRHEENVEQSCEPGHQSPSCILFIENLTARQYGHYRCEAQEGSYLREAQHWELLPEDRALAEQLMGHARALA	significantly increased infarct size	decreased numbers of PNCs	increased tissue damage	more PNCs extravasated	significantly increased numbers of PNCs	significantly increased signals	stronger signals	increased troponin I	affected neutrophil adhesion	markedly enhances	markedly enhances	does not affect	these results were reversed	increased MIRI
